The data set is described as follows: yeast display, Sf9 membrane polyspecificity reagent, FACS + sequencing; frameworks hold sequencing errors. The essentials:
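Galactose induction of a Saccharomyces cerevisiae BJ5465 synthetic nanobody display library ran 36–48 hours. The cells were then stained for 1 hour at 4 °C with 10% biotinylated, detergent-solubilized Sf9 membrane reagent, pulled down on streptavidin microbeads and FACS-sorted into low and high (top ~1%) gates on expression and reagent-binding fluorescence. Labels for polyreactivity follow the gate of origin.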
Regarding “QVQLVESGGGLVQAGGSLRLSCAASGSIFGPYAMGGYRQAPGKERELVAAISSGGSTNYADSVKGRFTISRDNAKNTVYLQMNSLKPEDTAVYYCAADRKYFYLWLDQEHRYYWGQGTQVTVSS”, the “polyreactivity (PSR sort gate)” value is listed as “low polyreactivity”.

Consider “QVQLVESGGGLVQAGGSLRLSCAASGSIFGPYAMGWYRQAPGKERELVAAISNGGTTYYADSVKGRFTISRDNAKYTVYLQMNSLKPEDTAVYYCNAEQYLYYILGNYDYWGQGTQVTVSS”, for which the “polyreactivity (PSR sort gate)” value is listed as “low polyreactivity”.

“QVQLVESGGGLVQAGGSLRLSCAASGSIFGPYAMGWYRQAPGKERELVAAISTRGGRTYYADSVKGRFTISRDNAKNTVYLQMNSLKPEDTAVYYCNARRSDSRSYDYWGQGTQVTVSS”: the “polyreactivity (PSR sort gate)” value was “high polyreactivity”.

Take “QVQLVESGGGLVQAGGSLRLSCAASGSIFGPYAMGWYRQAPGKERELVAVISKRGGSTYYADSVKGRFTISRDNAKNTVYLQMNSLKPEDTAVYYCAADYDWDPYRIYYLASYDYWGQGTQVTVSS”: the “polyreactivity (PSR sort gate)” value was “high polyreactivity”.

On to “QVQLVESGGGLVQAGGSLRLSCAASGSIFGQNAMGWYRQAPGKERELVAAITSGAGITYYADSVKGRFTISRDNAKNTVYLQMNSLKPEDPAVYYCIAVPSWSPSPLFDYWGQGTQVTVSS”, for which the “polyreactivity (PSR sort gate)” value was “low polyreactivity”.

For “QVQLVESGGGLVQAGGSLRLSCAASGSIFGRNALGWSRQAPGKERELVAAIRDSGTSTYYADSVKGRFTISRDNAKNTVYLQMNSLKPEDTAVYYCAASRRPGYTYGYWGQGTQVTVSS”, the “polyreactivity (PSR sort gate)” value is on record as “high polyreactivity”.

Take “QVQLVESGGGLVQAGGSLRLSCAASGSIFGRNAMGWYRQAPGKEREFVATITSRGGRTYYADSVKGRFTISRDNAKNTVYLQMNSLKPEYTAVYYCAADTYISTLKKYRLGDYWGQGTQVTVSS”: the “polyreactivity (PSR sort gate)” value was “low polyreactivity”.

“QVQLVESGGGLVQAGGSLRLSCAASGSIFGRYAMGWYRQAPGKEREFVSAISSSGGRTYYADSVKGRFPISRDNAKNTVYLQMNSLKPEDTAVYYCATEGYYSRTRLYLEYDYWGQGTQVTVSS”: the “polyreactivity (PSR sort gate)” value is reported as “high polyreactivity”.

For “QVQLVESGGGLVQAGGSLRLSCAASGSIFGRYAMGWYRQAPGKERELVAAISRTGVSTYYADSVKGRFTISRDNAKNTVYLQMKSLKTEDSAVYYCKAVRLSWQYTYYYWGQGTQVTVSS”, the “polyreactivity (PSR sort gate)” value was “high polyreactivity”.

Regarding “QVQLVESGGGLVQAGGSLRLSCAASGSIFGRYAMGWYRQAPGKERELVAAITFSGASTYYADSVKGRFTISRDNAKNTVYLQMNSLKPEDTAVYYCAADGGTIEGDYWGQGTQVTVSS”, the “polyreactivity (PSR sort gate)” value is “low polyreactivity”.

“QVQLVESGGGLVQAGGSLRLSCAASGSIFGRYAMGWYRQAPGKERELVAAITGSGGTTYYADSVKGRFTISRDNAKNTVYLQMNSLKPEDTAVYYCAADPQVYYSGRPRYDYWGQGTQVTVSS”: the “polyreactivity (PSR sort gate)” value is “high polyreactivity”.

Turning to “QVQLVESGGGLVQAGGSLRLSCAASGSIFGRYAMGWYRQAPGKERELVAVITSGGSTNYADSVKGRFTISRDKAKNTVYLQMNSLKPEDTAVYYCAVRPYELHRLADQPGGDDYWGQGTQVTVSS”, the “polyreactivity (PSR sort gate)” value is recorded as “low polyreactivity”.

Turning to “QVQLVESGGGLVQAGGSLRLSCAASGSIFGRYAMGWYRQAPGNERELVAGICSRGTSTYYADSVKGRFTISRDNAKNTVYLQMNSLKPEDTAVYYCNAYPYYIVGSRYDYWGQGTQVTVSS”, the “polyreactivity (PSR sort gate)” value is “high polyreactivity”.

Consider “QVQLVESGGGLVQAGGSLRLSCAASGSIFGRYGAMGWYRQAPGKERELVAAIRTSGVSTYYADSVKGRFTISRDNAKNTVYLQMNSLKPEDTAVYYCAKGYNSYNLGKYGYWGQGTQVTVSS”, for which the “polyreactivity (PSR sort gate)” value is on record as “low polyreactivity”.

With “QVQLVESGGGLVQAGGSLRLSCAASGSIFGRYGMGWYRQAPGKERELVAAITSGTRTNYADSVKGRFTISRDNAKNTVYLQMNSLKPEDTAVYYCNALRLRGNYEYGYWGHGTQVTVSS”, the “polyreactivity (PSR sort gate)” value is “low polyreactivity”.

Turning to “QVQLVESGGGLVQAGGSLRLSCAASGSIFGSNAMGWYRQAPGKERELVAAITESGGDTYYADSVKGRFTISRDNAKNTVYLQMNSLKPEDTAVYYCAARYFGVIVDVSLFREYGSWGQGTQVTVSS”, the “polyreactivity (PSR sort gate)” value was “low polyreactivity”.

Regarding “QVQLVESGGGLVQAGGSLRLSCAASGSIFGSYAMGWYRPAPGKERELVAAITIADITYYADSVKGRFTISRDNAKNTVYLQMNSLKPEDTAVYYCAAPYSPLWYPGGDYWRQGTQVTVSS”, the “polyreactivity (PSR sort gate)” value was “low polyreactivity”.

“QVQLVESGGGLVQAGGSLRLSCAASGSIFGSYAMGWYRQAPGKERELVAAITYSGTSTYYADSVKGRFTISRDNAKNTVYLQMNSLKPEDTAVYYCNAVSRHRSKFDYWGQGTQVTVSS”: the “polyreactivity (PSR sort gate)” value is listed as “high polyreactivity”.

For “QVQLVESGGGLVQAGGSLRLSCAASGSIFGSYAMGWYRQAPGKERELVAVITSSGNTKYADSVKGRFTISRDNAKNTVYLQMNSLKPEDTAVYYCAARFITWGSQYSFRSMDYWGQGTQVTVSS”, the “polyreactivity (PSR sort gate)” value is recorded as “high polyreactivity”.

With “QVQLVESGGGLVQAGGSLRLSCAASGSIFGSYAMGWYRQGAGKERELVAGITYDGGSTYYADSVKGRFTISRDNAKNTVYLQMNSLKPEDTAVYYCAAVDIRLEWDFWFQPTYEYWGQGTQVTVSS”, the “polyreactivity (PSR sort gate)” value is “low polyreactivity”.

Consider “QVQLVESGGGLVQAGGSLRLSCAASGSIFGTNAMGGYRQAPGKERELVAAIRGSGGRTYYADSVKGRFTISRDKAKNTVYLEMNSLKPEDSAVYYCAAPGNPYCWGYNYYYWGQGTQVTVSS”, for which the “polyreactivity (PSR sort gate)” value is given as “high polyreactivity”.

As to “QVQLVESGGGLVQAGGSLRLSCAASGSIFGTNAMGWYRQAPGKERELVAAIRGSGGRTYYADSVKGRFTISRDNAKNTVYLQMNSLKPEDTAVYYCAARWGPYYGGVRYGYWGQGTQVTVSS”, the “polyreactivity (PSR sort gate)” value is “high polyreactivity”.

As for “QVQLVESGGGLVQAGGSLRLSCAASGSIFGTNVMGWYRQAPGKERELVAAITASGSRTYYADSVKGRFTISRDNAKNTVYLQMNSLKPEDTAVYYCATVSRFGFKDFDYWGQGTQVTVSS”, the “polyreactivity (PSR sort gate)” value is “high polyreactivity”.

“QVQLVESGGGLVQAGGSLRLSCAASGSIFGTYAKGWYRQAPGKERELVADISLSGGSTYYADSVKGRFTISRDTAKKSVYLQMNSLKPEDNAVYYCNAESTAYGYVAVYRYDYWGQGTQVTVSS”: the “polyreactivity (PSR sort gate)” value is on record as “low polyreactivity”.

For “QVQLVESGGGLVQAGGSLRLSCAASGSIFGTYAMGWYRQAPGKERELVAAITGRDGITYADSVKGRFTISCDNAKNTVYLQMNSLKPEDTAVYYCAAVSHGVYYQYRRRYYSWGQGTQVTVSS”, the “polyreactivity (PSR sort gate)” value was “high polyreactivity”.

In the case of “QVQLVESGGGLVQAGGSLRLSCAASGSIFGTYAMGWYRQAPGKERELVAAITGSGGRTYYADSVKGRFTISRDNAKNTVYLQLNSLKPEDTAVYYCNKVVYVRSYPPRYDYWGQGTQVTVSS”, the “polyreactivity (PSR sort gate)” value is listed as “high polyreactivity”.

Consider “QVQLVESGGGLVQAGGSLRLSCAASGSIFGTYAMGWYRQAPGKERELVARISGGGSTYYADSVKGRFTISRDNAKNTVYLQMNSLKPEDTAVYYCNVRKWAYCSHAIIYNYWGQGTQVTVSS”, for which the “polyreactivity (PSR sort gate)” value is “high polyreactivity”.

As to “QVQLVESGGGLVQAGGSLRLSCAASGSIFGTYAMGWYRQAPGKEREMVARITSGGSTNYADSVKGRFTISRDNAKNTVFLQMNSLKPEDTAVYYCAARQYHWYLPSYWYRYDYWGQGTLVTVSS”, the “polyreactivity (PSR sort gate)” value is listed as “high polyreactivity”.

Turning to “QVQLVESGGGLVQAGGSLRLSCAASGSIFGVNAMGWYRQAPGKERELVADITKSTGDTYADSVKGRFTISRDNAKNTVYLQMNSLKPEDTAVYYCNARFTVKQKRLYLYDYWGQGTQVTVSS”, the “polyreactivity (PSR sort gate)” value is given as “low polyreactivity”.

Turning to “QVQLVESGGGLVQAGGSLRLSCAASGSIFGVNYMGWYRQAPGKERELVAGLSSSGGSTYYADSVKGRFTISRDNAKNTVYLQMNSLKPEDTAVYDCAATQSRYYSDDPYYYWGQGTQVTVSS”, the “polyreactivity (PSR sort gate)” value is recorded as “low polyreactivity”.

As to “QVQLVESGGGLVQAGGSLRLSCAASGSIFGVYAMGWYRQAPGKERELVAAISWSGTSTYYADSVKGRFTISRDNAKNTVYLQMNSLKPEDTAVYYCNGDWVLDGYDYDSWGQGTQVTVSS”, the “polyreactivity (PSR sort gate)” value was “low polyreactivity”.

For the sequence “QVQLVESGGGLVQAGGSLRLSCAASGSIFGVYTMGWYRQAPGKERELVAAITRSGGSTYYADSVKGRFTISRDNAKNTVYLQMNSLKPEDTAVYYCAARRAYVWCSQGYAHFEYWGQGTQVTVSS”, the “polyreactivity (PSR sort gate)” value is listed as “high polyreactivity”.

Take “QVQLVESGGGLVQAGGSLRLSCAASGSIFGWYAMGWYRQAPGKDWELVAASRRGGSTNYADSVKGRFTISRDNAKNTVYFQMNSLIPEATAVYYCAAGKSGYSKRIFRYSFDYWGQGTQVTVSS”: the “polyreactivity (PSR sort gate)” value is reported as “high polyreactivity”.

In the case of “QVQLVESGGGLVQAGGSLRLSCAASGSIFGWYAMGWYRQAPGKERELVAAIDSATSTYYADSVKGRFTISRDNAKNTVYLQMNSLKPEDTAFYYCAAVQLYQKHQITYVAHEYWGQGTQVTVSS”, the “polyreactivity (PSR sort gate)” value is “low polyreactivity”.

For “QVQLVESGGGLVQAGGSLRLSCAASGSIFGWYAMGWYRQAPGKERELVATISSGGGNTYYADSVKGRFTISRDNAKNTVYLQMNSLKPEDTAVYYCAADRTFYGIRFDYWGQGTQVTVSS”, the “polyreactivity (PSR sort gate)” value is reported as “low polyreactivity”.

With “QVQLVESGGGLVQAGGSLRLSCAASGSIFGWYTMGWYRQAPGKERELVAAITWRGGTTYYADSVKGRFTISRDNAKNTVYLQMNSLKPEDTAVYYCATTRYPRSYQEFGYWGQGTQVTVSS”, the “polyreactivity (PSR sort gate)” value is reported as “high polyreactivity”.

“QVQLVESGGGLVQAGGSLRLSCAASGSIFGYNAMGWYRQAPGKEREFVAAINTSGGSTYYADSVKGSFTISRDNAKNTVYLQMYSLKPEATAVYYCAARAYSWISARYYWGLGTQVTVSS”: the “polyreactivity (PSR sort gate)” value was “high polyreactivity”.

As to “QVQLVESGGGLVQAGGSLRLSCAASGSIFGYNAMGWYRQAPGKERELVAAISLTTGSTYYADSVKGRFTISRDNAKNTVYLQMNCLKPEDTAVYYCAAVDADYYYWGQGTQVTVSS”, the “polyreactivity (PSR sort gate)” value is given as “high polyreactivity”.

As to “QVQLVESGGGLVQAGGSLRLSCAASGSIFGYNAMGWYRQAPGKERELVAAITSSGGSTYNADSVKGRFTISRDNAKNTVYLQMNSLKPEDTAFYYCNSRDWYIVWYDYWGQGTQVTVSS”, the “polyreactivity (PSR sort gate)” value was “low polyreactivity”.

With “QVQLVESGGGLVQAGGSLRLSCAASGSIFGYNDMGWYRQAPGKERELVATITWGGGRTRYADSVKGRFTISRDNAKNTVYFQMNSLKPEDTAVYYCAAGYYRLWVRYDYWGQGTQVTVSS”, the “polyreactivity (PSR sort gate)” value is “low polyreactivity”.

The values above are taken from the nanobody polyreactivity screen of Harvey et al. (2022).
